Reference: US20250034256A1 (EUCURE BEIJING BIOPHARMA, published 2025)

B1: mouse anti-hPD-1 antibody 18-3F1 (antibody, V domains shown)
VH: QVQLQQSGAELAKPGASVKMSCKASGYTFTSYWMHWVKQRPGQGLEWIGYINPSTGYTEYNQKFKDKATLTADKSSSTAYMQLSSLTSEDSAVYYCARGVRYYFDYWGQGTTLTVSS
VL: DIVMSQSPSSLAVSAGEKVTMSCKSSQSLLNSRTRKNYLAWYQQKPGQSPKLLIYWASTRESGVPDRFTGSGSGTDFTLTISSVQAEDLAVYYCKQSYNLLTFGAGTKLELK
notes: Mouse monoclonal antibody purified from ascites
B2: mouse anti-hPD-1 antibody 3-6G1 (antibody, V domains shown)
VH: QVQLQQSGAELAKPGASLKMSCKASGYTLTSYWMHWVKQRPGQGLEWIGYINPNTGYTEYNQKFKDKATLTADKSSSTAYMQLSSLTSEDSAVYYCARGTAYYFDYWGQGTTLTVSS
VL: DIVMSQSPSSLAVSAGEKVTMSCKSSQSLLNSRTRKNYLAWYQQKPGQSPKLLIYWASTRESGVPDRFTGSGSGTDFTLTISSVQAEDLAVYYCKQSYNLQTFGGGTKLEIK
notes: Mouse monoclonal antibody purified from ascites; also called 03-6G1
B3: 3F1-H4K2-IgG4-S228P (antibody, V domains shown)
VH: QVQLQQSGAEVAKPGASVKMSCKASGYTFTSYWMHWVKQRPGQGLEWIGYINPSTGYTEYNQKFKDRATLTADKSTSTAYMELSSLTSEDTAVYYCARGVRYYFDYWGQGTLLTVSS
VL: DIVMTQSPDSLAVSLGERATMSCKSSQSLLNSRTRKNYLAWYQQKPGQSPKLLIYWASTRESGVPDRFSGSGSGTDFTLTISSVQAEDVAVYYCKQSYNLLTFGQGTKLELK
notes: Humanized; human IgG4 constant domains with S228P (EU numbering)
B4: 3F1-H3K1-IgG4-S228P (antibody, V domains shown)
VH: QVQLQQSGAEVAKPGASVKMSCKASGYTFTSYWMHWVKQRPGQGLEWIGYINPSTGYTEYNQKFKDRATLTADTSTSTAYMELSSLRSEDTAVYYCARGVRYYFDYWGQGTLLTVSS
VL: DIVMTQSPDSLAVSLGERATISCKSSQSLLNSRTRKNYLAWYQQKPGQSPKLLIYWASTRESGVPDRFSGSGSGTDFTLTISSVQAEDVAVYYCKQSYNLLTFGQGTKLELK
notes: as for B3
B5: 3F1-H2K3-IgG4-S228P (antibody, V domains shown)
VH: QVQLQQSGAEVKKPGASVKMSCKASGYTFTSYWMHWVKQRPGQGLEWIGYINPSTGYTEYNQKFKDRATLTADKSTSTAYMELSSLRSEDTAVYYCARGVRYYFDYWGQGTLVTVSS
VL: DIVMTQSPSSLAVSAGERVTMSCKSSQSLLNSRTRKNYLAWYQQKPGQSPKLLIYWASTRESGVPDRFSGSGSGTDFTLTISSVQAEDVAVYYCKQSYNLLTFGQGTKLELK
notes: as for B3
B6: 3F1-H4K1-IgG4-S228P (antibody, V domains shown)
VH: QVQLQQSGAEVAKPGASVKMSCKASGYTFTSYWMHWVKQRPGQGLEWIGYINPSTGYTEYNQKFKDRATLTADKSTSTAYMELSSLTSEDTAVYYCARGVRYYFDYWGQGTLLTVSS
VL: DIVMTQSPDSLAVSLGERATISCKSSQSLLNSRTRKNYLAWYQQKPGQSPKLLIYWASTRESGVPDRFSGSGSGTDFTLTISSVQAEDVAVYYCKQSYNLLTFGQGTKLELK
notes: as for B3
B7: 3F1-H4K3-IgG4-S228P (antibody, V domains shown)
VH: QVQLQQSGAEVAKPGASVKMSCKASGYTFTSYWMHWVKQRPGQGLEWIGYINPSTGYTEYNQKFKDRATLTADKSTSTAYMELSSLTSEDTAVYYCARGVRYYFDYWGQGTLLTVSS
VL: DIVMTQSPSSLAVSAGERVTMSCKSSQSLLNSRTRKNYLAWYQQKPGQSPKLLIYWASTRESGVPDRFSGSGSGTDFTLTISSVQAEDVAVYYCKQSYNLLTFGQGTKLELK
notes: as for B3
B8: 3F1-H2K1-IgG4-S228P (antibody, V domains shown)
VH: QVQLQQSGAEVKKPGASVKMSCKASGYTFTSYWMHWVKQRPGQGLEWIGYINPSTGYTEYNQKFKDRATLTADKSTSTAYMELSSLRSEDTAVYYCARGVRYYFDYWGQGTLVTVSS
VL: DIVMTQSPDSLAVSLGERATISCKSSQSLLNSRTRKNYLAWYQQKPGQSPKLLIYWASTRESGVPDRFSGSGSGTDFTLTISSVQAEDVAVYYCKQSYNLLTFGQGTKLELK
notes: as for B3
B9: 3F1-H2K2-IgG4-S228P (antibody, V domains shown)
VH: QVQLQQSGAEVKKPGASVKMSCKASGYTFTSYWMHWVKQRPGQGLEWIGYINPSTGYTEYNQKFKDRATLTADKSTSTAYMELSSLRSEDTAVYYCARGVRYYFDYWGQGTLVTVSS
VL: DIVMTQSPDSLAVSLGERATMSCKSSQSLLNSRTRKNYLAWYQQKPGQSPKLLIYWASTRESGVPDRFSGSGSGTDFTLTISSVQAEDVAVYYCKQSYNLLTFGQGTKLELK
notes: as for B3
B10: 3F1-H3K3-IgG4-S228P (antibody, V domains shown)
VH: QVQLQQSGAEVAKPGASVKMSCKASGYTFTSYWMHWVKQRPGQGLEWIGYINPSTGYTEYNQKFKDRATLTADTSTSTAYMELSSLRSEDTAVYYCARGVRYYFDYWGQGTLLTVSS
VL: DIVMTQSPSSLAVSAGERVTMSCKSSQSLLNSRTRKNYLAWYQQKPGQSPKLLIYWASTRESGVPDRFSGSGSGTDFTLTISSVQAEDVAVYYCKQSYNLLTFGQGTKLELK
notes: as for B3
B11: mouse anti-hPD-1 antibody 25-1A7 (antibody, V domains shown)
VH: EVKLVESGGGLVQPGGSLKLSCAASGFTFSSYSMSWVRQTPEKRLEWVAHISSGGSSTYYPDTVKGRFTISRDNARNTLYLQMSSLKSEDTAMYYCTRQFYYGSSFWYFDVWGAGTTVTVSS
VL: DNVLTQSPVSLAVSLGQRATISCKASQSVDFDGDSYMNWYQQKPGQPPKLLIYAASNLESGIPARFSGSGSGTDFTLNIHPVEEEDAATYYCQQSNEDPPTFGGGTKLEIK
notes: as for B1

Legend:
[1] = target: mouse PD-1 (mPD-1) on transfected CHO cells (mouse) (UniProt Q02242); assay: flow cytometry on CHO cells transfected with mPD-1 (CHO-mPD-1); anti-mIgG Fc-FITC against SSC-H
[2] = target: monkey (rhesus macaque) PD-1 (rmPD-1) on transfected CHO cells (rhesus macaque); assay: flow cytometry on CHO cells transfected with rmPD-1 (CHO-rmPD-1); anti-mIgG Fc-FITC against SSC-H
[3] = target: chimeric (mouse and human) PD-1 (chiPD-1) on transfected CHO cells (chimeric (mouse and human)); assay: flow cytometry on CHO cells transfected with chiPD-1 (CHO-chiPD-1); anti-mIgG Fc-FITC against SSC-H
Chain of chimeric (mouse and human) PD-1 (chiPD-1) on transfected CHO cells (chimeric (mouse and human)) (chain, as listed by the source mutant limits assumed): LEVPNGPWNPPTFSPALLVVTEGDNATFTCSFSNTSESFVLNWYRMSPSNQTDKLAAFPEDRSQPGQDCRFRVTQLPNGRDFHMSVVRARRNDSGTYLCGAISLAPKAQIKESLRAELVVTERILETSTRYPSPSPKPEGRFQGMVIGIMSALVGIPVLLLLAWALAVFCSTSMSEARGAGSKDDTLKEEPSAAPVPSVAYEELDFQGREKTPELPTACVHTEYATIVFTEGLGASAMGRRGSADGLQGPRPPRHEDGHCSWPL

[4] = target: T1, mouse PD-1 (mPD-1) on transfected CHO cells (mouse, UniProt Q02242 25-288); assay: flow cytometry on CHO cells transfected with mouse PD-1
T1 sequence: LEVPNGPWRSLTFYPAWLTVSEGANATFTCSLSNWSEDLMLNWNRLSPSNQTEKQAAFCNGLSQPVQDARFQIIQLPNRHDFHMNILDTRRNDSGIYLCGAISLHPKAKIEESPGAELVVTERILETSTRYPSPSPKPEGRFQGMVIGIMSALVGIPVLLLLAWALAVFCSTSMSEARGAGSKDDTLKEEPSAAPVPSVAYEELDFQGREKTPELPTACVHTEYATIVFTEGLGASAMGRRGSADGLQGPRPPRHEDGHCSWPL
Protocol: (§1) 25 μl CHO cells were added to each well.
(§2) After being washed with PBS (1200 rmp, 5 min) twice, 50 μl of FITC labeled anti-mouse IgG Fc antibody (anti-mIgG Fc-FITC) was added into each well 1:500 dilution, followed by incubated at 4° C. for 30 minutes, and then PBS wash (1200 rmp, 5 min). The signals for FITC were determined by flow cytometry.

[5] = target: T1, mouse PD-1 (mPD-1) on transfected CHO …; assay: flow cytometry, antibody at 1 µg/ml on CHO cells transfected with mPD-1 (CHO-mPD-1); anti-mIgG Fc-FITC against SSC-H
Protocol: as §1, §2

[6] = target: T2, monkey (rhesus macaque) PD-1 (rmPD-1) on transfected CHO cells (rhesus macaque, UniProt Q15116 25-288 (human entry)); assay: flow cytometry, antibody at 1 µg/ml on CHO cells transfected with rmPD-1 (CHO-rmPD-1); anti-mIgG Fc-FITC against SSC-H
T2 construct: also called monkey PD-1
T2 chain: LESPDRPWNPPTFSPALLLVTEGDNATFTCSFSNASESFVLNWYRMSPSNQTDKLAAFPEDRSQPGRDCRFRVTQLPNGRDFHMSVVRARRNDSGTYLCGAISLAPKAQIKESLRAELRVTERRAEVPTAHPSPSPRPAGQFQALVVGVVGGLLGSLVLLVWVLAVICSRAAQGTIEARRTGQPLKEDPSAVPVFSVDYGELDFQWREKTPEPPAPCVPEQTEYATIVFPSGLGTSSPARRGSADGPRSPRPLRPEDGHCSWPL
Protocol: as §1, §2

[7] = target: T3, Histidine-tagged human PD-1 protein (hPD-1-His) (human, UniProt Q15116 25-170, limits assumed); assay: SPR (Biacore T200), antibody captured on Protein A chip, hPD-1-His analyte, 1:1 fit
T3 construct: Soluble analyte in SPR; not shown: histidine tag
T3 sequence (Q15116 25-170 limits assumed): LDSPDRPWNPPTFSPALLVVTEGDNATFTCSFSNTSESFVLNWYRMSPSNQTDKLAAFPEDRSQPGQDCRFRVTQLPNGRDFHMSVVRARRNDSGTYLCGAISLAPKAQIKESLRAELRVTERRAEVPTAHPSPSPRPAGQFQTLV
Protocol: The binding affinity of the anti-hPD-1 antibodies were measured using surface plasmon resonance (SPR) using Biacore™ (Biacore™, INC, Piscataway N.J.) T200 biosensor equipped with pre-immobilized Protein A sensor chips.
Histidine-tagged human PD-1 proteins (hPD-1-His) at the concentration of 200, 100, 50, 25, 12.5, 6.25, 3.125, 1.5625 nM were then injected at 30 μL/min for 100 seconds. Dissociation was monitored for 400 seconds. The chip was regenerated after the last injection of each titration with Glycine (pH 2.0, 30 μL/min for 12 seconds).
As a person of ordinary skill in the art would understand, the same method with appropriate adjustments for parameters (e.g., antibody concentration) was performed for each tested antibody.

Row | Molecule | Kd [7] [nM] | koff [7] [s⁻¹] | kon [7] [M⁻¹ s⁻¹] | also measured
1 | NC |  |  |  | % cells positive for Anti-mouse-IgGFc-FITC [1]: 0.346%; % cells positive for Anti-mouse-IgGFc-FITC [2]: 0.812%; % cells positive for Anti-mouse-IgGFc-FITC [3]: 2.79%
2 | B1 |  |  |  | binding result [4]: no binding (tested: 1 µg/ml); % cells positive for Anti-mouse-IgGFc-FITC [5]: 1.51%; % cells positive for Anti-mouse-IgGFc-FITC [6]: 63.6%
3 | B2 |  |  |  | binding result [4]: no binding (tested: 1 µg/ml); % cells positive for Anti-mouse-IgGFc-FITC [5]: 0.502%; % cells positive for Anti-mouse-IgGFc-FITC [6]: 64.3%
4 | B3 | 369 | 0.00177 | 4800 | 
5 | B4 | 395 | 0.00179 | 4530 | 
6 | B5 | 329 | 0.00145 | 4410 | 
7 | B6 | 460 | 0.00204 | 4420 | 
8 | B7 | 397 | 0.00161 | 4060 | 
9 | B8 | 422 | 0.00192 | 4550 | 
10 | B9 | 354 | 0.0017 | 4810 | 
11 | B10 | 318 | 0.00139 | 4380 | 
12 | B11 |  |  |  | binding result [4]: no binding (tested: 1 µg/ml); % cells positive for Anti-mouse-IgGFc-FITC [5]: 0.381%; % cells positive for Anti-mouse-IgGFc-FITC [6]: 85%
